Experimental data reported in publication PMC3699631, “Posttranslational Modifications of the Histone 3 Tail and Their Impact on the Activity of Histone Lysine Demethylases In Vitro” (PLoS ONE, 2013).

Experiments:
human cc-KDM4A = target: T1, human cc-KDM4A (Homo sapiens, UniProt O75164); experiment: FDH-assay enzyme kinetics of H3 peptide demethylation, truncated KDM4A; type: biochemical; design: key to K m / k cat / k cat /K m: 0 means no demethylation could be detected; conditions: cc-KDM4A; for K m / k cat / k cat /K m / demethylation / catalytic activity (in words): FDH-assay; for K m: 50 mM HEPES (pH 7.5), 50 mM NaCl, 50 µM FeSO4, 500 µM α-KG, 500 µM ascorbate, 2 mM NAD, substrate 10–1000 µM, NADH fluorescence 15–30 minutes; for K m / k cat / k cat /K m: triplicate; for k cat / k cat /K m: pH 7.5; for k cat: NADH fluorescence; for demethylation / catalytic activity (in words): compared to H3(1–24)K9me3 where a change is stated
T1 construct: Truncated constructs of KDM4A and KDM4C containing only the catalytic cores (cc-KDM4A/cc-KDM4C); made in house
T1 sequence (O75164 1-350 limits assumed): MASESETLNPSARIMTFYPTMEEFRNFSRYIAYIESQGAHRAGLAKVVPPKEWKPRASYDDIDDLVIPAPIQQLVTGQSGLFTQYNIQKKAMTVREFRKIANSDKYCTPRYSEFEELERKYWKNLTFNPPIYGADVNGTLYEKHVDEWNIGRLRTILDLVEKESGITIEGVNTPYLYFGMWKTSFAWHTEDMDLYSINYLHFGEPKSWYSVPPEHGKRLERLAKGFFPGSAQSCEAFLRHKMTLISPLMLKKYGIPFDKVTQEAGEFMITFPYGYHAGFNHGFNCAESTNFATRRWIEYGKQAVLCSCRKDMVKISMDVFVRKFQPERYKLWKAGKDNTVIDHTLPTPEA
Description: (§1) The enzyme kinetics were measured using a Formaldehyde DeHydrogenase Assay (FDH-Assay) and the demethylation of substrates was confirmed when possible by MALDI-TOF-MS, see File S1 for details. The test solution contained 50 mM HEPES (pH 7.5), 50 mM NaCl, 50 µM FeSO4, 500 µM α-KG, 500 µM ascorbate, 2 mM NAD, approximately 0.05 unit of FDH and e.g. 4.88 µM KDM4C (enzyme concentration varied between batches). The reference solution was comprised of the same except substrate. The assay was initiated by adding various concentrations of H3 peptide substrates e.g. H3(1–24)K9me3 (10–1000 µM) and the increase in NADH fluorescence was measured over 15–30 minutes in 30 second intervals. Data analysis and kinetic values were obtained using programs Excel and GraphPad Prism® 5.0. For details, see File S1.
(§2) The standard deviations for k cat/K m were calculated using the statistic law of propagation of errors. Standard errors for Michaelis-Menten Kinetics were automatically given in GraphPad Prism®, with a 95% confidence interval. All enzyme kinetic curves were done in triplicate unless otherwise stated.
(§3) Test for activity of enzyme using the fluorescence FDH assay, determination of Vmax and Km of enzymes with substrate, expression and purification of cc-KDM4A and cc-KDM4C software and parameters for the FDH coupled assay, see Lohse et al.^21
as §2, with “kcat/ Km” for “k cat/K m”, “95 %” for “95%”

human cc-KDM4C = target: T2, human cc-KDM4C (Homo sapiens, UniProt Q9H3R0); experiment: FDH-assay enzyme kinetics of H3 peptide demethylation, truncated KDM4C; type: biochemical; conditions: for K m / demethylation / catalytic activity (in words) / k cat / k cat /K m: FDH-assay; for K m: 50 mM HEPES (pH 7.5), 50 mM NaCl, 50 µM FeSO4, 500 µM α-KG, 500 µM ascorbate, 2 mM NAD, substrate 10–1000 µM, e.g. 4.88 µM KDM4C, NADH fluorescence 15–30 minutes; for K m / k cat: triplicate; for demethylation / catalytic activity (in words): compared to H3(1–24)K9me3 where a change is stated; for k cat: pH 7.5, NADH fluorescence; for k cat /K m: pH 7.5, triplicate
T2 construct: Truncated constructs of KDM4A and KDM4C containing only the catalytic cores (cc-KDM4A/cc-KDM4C); made in house
T2 sequence (Q9H3R0 1-349 limits assumed): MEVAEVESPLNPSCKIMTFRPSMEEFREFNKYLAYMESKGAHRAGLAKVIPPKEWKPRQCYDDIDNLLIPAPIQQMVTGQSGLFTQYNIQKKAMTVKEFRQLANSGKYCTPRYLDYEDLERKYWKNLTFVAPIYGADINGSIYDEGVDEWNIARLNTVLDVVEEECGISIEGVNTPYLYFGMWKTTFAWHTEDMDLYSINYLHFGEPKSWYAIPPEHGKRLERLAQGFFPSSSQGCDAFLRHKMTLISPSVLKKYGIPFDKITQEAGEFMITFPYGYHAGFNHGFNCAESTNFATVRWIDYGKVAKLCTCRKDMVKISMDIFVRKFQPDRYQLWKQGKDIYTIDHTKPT
Description: as §1, §2, §3
as §2, with “kcat/ Km” for “k cat/K m”, “95 %” for “95%”

[1] = SD by propagation of errors, unit: min^−1 * µM^−1 * 10^3
[2] = SD by propagation of errors, unit: (min^−1 * µM^−1) * 10^3

| Substance | K m (human cc-KDM4A) | k cat (human cc-KDM4A) | k cat /K m (human cc-KDM4A; [1]) | fold increase in k cat/K m (human cc-KDM4A; compared to H3(1–24)K9me3) [fold] | k cat /K m (human cc-KDM4A; figures and text) [min^-1 * μM^-1 * 10^3] | K m (human cc-KDM4C) | demethylation / catalytic activity (in words) (human cc-KDM4C) | k cat (human cc-KDM4C) | k cat /K m (human cc-KDM4C; [2]) | fold increase in k cat/K m (human cc-KDM4C; compared to H3(1–24)K9me3) [fold] | k cat /K m (human cc-KDM4C; figures) [min^-1 * μM^-1 * 10^3] | demethylation / catalytic activity (in words) (human cc-KDM4A) |
| --- | --- | --- | --- | --- | --- | --- | --- | --- | --- | --- | --- | --- |
| H3(1–24)K4me3K9me3: bis-tri-methylated substrate, trimethylated K4 in combination with H3K9me3 | 82±11 | 1.1±0.04 | 13.4±1.9 | 2 | 13±2 | 70±13 | an increase of the enzymatic catalytic efficiency | 1.2±0.1 | 17±2 | 2 | 17 ± 2 |  |
| H3(1–24)K9me2: truncated histone tail, 24 first amino acids from the N-terminus of H3, dimethylated lysine 9 | Below detection | Below detection | Below detection |  |  | 79±10 |  | 0.1±0.01 | 1.3±0.2 |  |  | could not be detected |
| H3(1–24)K9me3: truncated histone tail, 24 first amino acids from the N-terminus of H3, trimethylated lysine 9; control peptide | 131±16 | 1.1±0.04 | 8.4±1.1 |  | 8.4±1.1 | 55±11 |  | 0.5±0.04 | 9±1 |  | 9 ± 1 |  |
| H3(1–24)K9me3T11(ph): H3(1–24)K9me3 with phosphorylation of threonine 11 | 0 | 0 | 0 |  |  |  | no detectable turnover |  |  |  |  | no detectable turnover |
